Measured values reported in patent publication US20090232804A1 (GLENMARK PHARMACEUTICALS S A, published 2009).
Several values for one entry are separate records, joined by “and”; a condition that tells them apart may be missing. Equal values may be shown once.

Molecular target: T1, purified human von Willebrand factor (vWF) (human, UniProt P04275 764-2813)
Assay: cell-based or functional assay

Binder	Platelet agglutination EC50, single experiment	Platelet agglutination EC50 mean value (from 2 independent expts.) [nM]
humanized NMC-4 variant H9L9 IgG4 (antibody, V domains shown) VH: QVQLQESGPGLVKPSETLSLTCTVSGFSLTDYGVDWIRQPPGKGLEWIGMIWGDGSTDYNSALKSRVTISVDTSKNQFSLKLSSVTAADTAVYYCARDPADYGNYDYALDYWGQGTLVTVSS VL: DIQMTQSPSSLSASVGDRVTITCSASQDINKYLNWYQQKPGKAPKLLIYYTSSLHSGVPSRFSGSGSGTDFTLTISSLQPEDFATYYCQQYEKLPWTFGQGTKVEIK	1.3 nM and 1.5 nM	1.4
humanized NMC-4 variant H14-L10, IgG4 (antibody, V domains shown) VH: QVQLQESGPGLVKPSETLSLTCTVSGGSISDYGWDWIRQPPGKGLEWIGMIWGDGSTDYNPSLKSRVTISVDTSKNQFSLKLSSVTAADTAVYYCARDPADYGNYDYALDYWGQGTLVTVSS VL: DIQMTQSPSSLSASVGDRVTITCQASQDISNYLNWYQQKPGKAPKLLIYYTSSLHSGVPSRFSGSGSGTDFTLTISSLQPEDFATYYCQQYEKLPWTFGQGTKVEIK	2.3 nM and 2 nM	2.15

Molecular target: T1, purified human von Willebrand factor …
Assay: cell-based or functional assay
Remark: another data set of the same source

Binder	EC50 [nM]
humanized NMC-4 variant H2, L4 (IgG1) (antibody, V domains shown) VH: QVQLQESGPGLVKPSETLSLTCTVSGFSLTDYGVDWIRQPPGKGLEWIGMIWGDGSTDYNSALKSRLTISKDNSKNQVSLKLSSVTAADTAVYYCVRDPADYGNYDYALDYWGQGTSLTVSS VL: DIQMTQSPSSLSASVGDRVTITCSASQDINKYLNWYQQKPGKAPKLLIFYTSSLHSGVPSRFSGSGSGTDYTLTISSLQPEDIATYYCQQYEKLPWTFGQGTKVEIK	0.14
humanized NMC-4 variant H2, L6 (IgG1) (antibody, V domains shown) VH: QVQLQESGPGLVKPSETLSLTCTVSGFSLTDYGVDWIRQPPGKGLEWIGMIWGDGSTDYNSALKSRLTISKDNSKNQVSLKLSSVTAADTAVYYCVRDPADYGNYDYALDYWGQGTSLTVSS VL: DIQMTQSPSSLSASVGDRVTITCSASQDINKYLNWYQQKPGKAVKLLIYYTSSLHSGVPSRFSGSGSGTDYTLTISSLQPEDIATYYCQQYEKLPWTFGQGTKVEIK	0.14
humanized NMC-4 variant H2, L7 (IgG1) (antibody, V domains shown) VH: QVQLQESGPGLVKPSETLSLTCTVSGFSLTDYGVDWIRQPPGKGLEWIGMIWGDGSTDYNSALKSRLTISKDNSKNQVSLKLSSVTAADTAVYYCVRDPADYGNYDYALDYWGQGTSLTVSS VL: DIQMTQSPSSLSASVGDRVTITCSASQDINKYLNWYQQKPGKAVKLLIFYTSSLHSGVPSRFSGSGSGTDFTLTISSLQPEDIATYYCQQYEKLPWTFGQGTKVEIK	0.15
humanized NMC-4 variant H9, L4 (IgG1) (antibody, V domains shown) VH: QVQLQESGPGLVKPSETLSLTCTVSGFSLTDYGVDWIRQPPGKGLEWIGMIWGDGSTDYNSALKSRVTISVDTSKNQFSLKLSSVTAADTAVYYCARDPADYGNYDYALDYWGQGTLVTVSS VL: DIQMTQSPSSLSASVGDRVTITCSASQDINKYLNWYQQKPGKAPKLLIFYTSSLHSGVPSRFSGSGSGTDYTLTISSLQPEDIATYYCQQYEKLPWTFGQGTKVEIK	0.11
humanized NMC-4 variant H9, L5 (IgG1) (antibody, V domains shown) VH: QVQLQESGPGLVKPSETLSLTCTVSGFSLTDYGVDWIRQPPGKGLEWIGMIWGDGSTDYNSALKSRVTISVDTSKNQFSLKLSSVTAADTAVYYCARDPADYGNYDYALDYWGQGTLVTVSS VL: DIQMTQSPSSLSASVGDRVTITCSASQDINKYLNWYQQKPGKAVKLLIFYTSSLHSGVPSRFSGSGSGTDYTLTISSLQPEDIATYYCQQYEKLPWTFGQGTKVEIK	0.14
humanized NMC-4 variant H9, L6 (IgG1) (antibody, V domains shown) VH: QVQLQESGPGLVKPSETLSLTCTVSGFSLTDYGVDWIRQPPGKGLEWIGMIWGDGSTDYNSALKSRVTISVDTSKNQFSLKLSSVTAADTAVYYCARDPADYGNYDYALDYWGQGTLVTVSS VL: DIQMTQSPSSLSASVGDRVTITCSASQDINKYLNWYQQKPGKAVKLLIYYTSSLHSGVPSRFSGSGSGTDYTLTISSLQPEDIATYYCQQYEKLPWTFGQGTKVEIK	0.13
humanized NMC-4 variant H9, L7 (IgG1) (antibody, V domains shown) VH: QVQLQESGPGLVKPSETLSLTCTVSGFSLTDYGVDWIRQPPGKGLEWIGMIWGDGSTDYNSALKSRVTISVDTSKNQFSLKLSSVTAADTAVYYCARDPADYGNYDYALDYWGQGTLVTVSS VL: DIQMTQSPSSLSASVGDRVTITCSASQDINKYLNWYQQKPGKAVKLLIFYTSSLHSGVPSRFSGSGSGTDFTLTISSLQPEDIATYYCQQYEKLPWTFGQGTKVEIK	0.11
humanized NMC-4 variant H9, L8 (IgG1) (antibody, V domains shown) VH: QVQLQESGPGLVKPSETLSLTCTVSGFSLTDYGVDWIRQPPGKGLEWIGMIWGDGSTDYNSALKSRVTISVDTSKNQFSLKLSSVTAADTAVYYCARDPADYGNYDYALDYWGQGTLVTVSS VL: DIQMTQSPSSLSASVGDRVTITCSASQDINKYLNWYQQKPGKAPKLLIYYTSSLHSGVPSRFSGSGSGTDFTLTISSLQPEDIATYYCQQYEKLPWTFGQGTKVEIK	0.08
humanized NMC-4 variant H2, L5 (IgG1) (antibody, V domains shown) VH: QVQLQESGPGLVKPSETLSLTCTVSGFSLTDYGVDWIRQPPGKGLEWIGMIWGDGSTDYNSALKSRLTISKDNSKNQVSLKLSSVTAADTAVYYCVRDPADYGNYDYALDYWGQGTSLTVSS VL: DIQMTQSPSSLSASVGDRVTITCSASQDINKYLNWYQQKPGKAVKLLIFYTSSLHSGVPSRFSGSGSGTDYTLTISSLQPEDIATYYCQQYEKLPWTFGQGTKVEIK	0.13
humanized NMC-4 variant H4, L5 (IgG1) (antibody, V domains shown) VH: QVQLQESGPGLVKPSETLSLTCTVSGFSLTDYGVDWIRQPPGKGLEWIGMIWGDGSTDYNSALKSRLTISKDNSKNQVSLKLSSVTAADTAVYYCARDPADYGNYDYALDYWGQGTSLTVSS VL: DIQMTQSPSSLSASVGDRVTITCSASQDINKYLNWYQQKPGKAVKLLIFYTSSLHSGVPSRFSGSGSGTDYTLTISSLQPEDIATYYCQQYEKLPWTFGQGTKVEIK	0.15
humanized NMC-4 variant H5, L5 (IgG1) (antibody, V domains shown) VH: QVQLQESGPGLVKPSETLSLTCTVSGFSLTDYGVDWIRQPPGKGLEWIGMIWGDGSTDYNSALKSRVTISKDNSKNQVSLKLSSVTAADTAVYYCVRDPADYGNYDYALDYWGQGTSLTVSS VL: DIQMTQSPSSLSASVGDRVTITCSASQDINKYLNWYQQKPGKAVKLLIFYTSSLHSGVPSRFSGSGSGTDYTLTISSLQPEDIATYYCQQYEKLPWTFGQGTKVEIK	0.18
humanized NMC-4 variant H6, L5 (IgG1) (antibody, V domains shown) VH: QVQLQESGPGLVKPSETLSLTCTVSGFSLTDYGVDWIRQPPGKGLEWIGMIWGDGSTDYNSALKSRLTISVDNSKNQVSLKLSSVTAADTAVYYCVRDPADYGNYDYALDYWGQGTSLTVSS VL: DIQMTQSPSSLSASVGDRVTITCSASQDINKYLNWYQQKPGKAVKLLIFYTSSLHSGVPSRFSGSGSGTDYTLTISSLQPEDIATYYCQQYEKLPWTFGQGTKVEIK	0.18
humanized NMC-4 variant H7, L5 (IgG1) (antibody, V domains shown) VH: QVQLQESGPGLVKPSETLSLTCTVSGFSLTDYGVDWIRQPPGKGLEWIGMIWGDGSTDYNSALKSRLTISKDTSKNQVSLKLSSVTAADTAVYYCVRDPADYGNYDYALDYWGQGTSLTVSS VL: DIQMTQSPSSLSASVGDRVTITCSASQDINKYLNWYQQKPGKAVKLLIFYTSSLHSGVPSRFSGSGSGTDYTLTISSLQPEDIATYYCQQYEKLPWTFGQGTKVEIK	0.16
